Reference: PMC7962585 (Cell, 2021)

B1: S2M28 IgG1 (antibody, V domains shown)
VH: EVQLVESGGGVVQPGRSLRLSCAASGFTFSSYGMHWVRQAPGKGLEWVTVIWYDGSNRYYADSVKGRFTISRDNSKNTLYLQMDSLRAEDTAVYYCARAVAGEWYFDYWGQGTLVTVSS
VL: SYELTQPPSVSVSPGQTARITCSGDALAKHYAYWYRQKPGQAPVLVIYKDSERPSGIPERFSGSSSGTTVTLTISGVQAEDEADYYCQSADSIGSSWVFGGGTKLTVL
B2: S2X333 IgG1 (antibody, V domains shown)
VH: VQLVESGGGVVQPGRSLRLSCAASGFTFSNYGMHWVRQAPGKGLEWVAVIWYDGSNKFYADSVKGRFTISRDNSKNSLYLQMNSLRAEDTAVYFCARAFPDSSSWSGFTIDYWGQGTLVTV
VL: YELTQPPSVSTARITCGGNNIERKSVHWCQQKPGQAPALVVYDDSDRPSGIPERFSGSNSGNTATLTISRVEAGDEADYYCQVWDSGSDQVIFGGGTKLT
B3: S2L28 IgG1 (antibody, V domains shown)
VH: EVQLVESGGGLVNPGGSLRLSCAASGFTFSDYTIHWVRQAPGKGLEWVSSISSSSNYIYYADSVKGRFTISRDNAKNSLSLQMNSLRAEDTAVYYCARDGNAYKWLLAENVRFDYWGQGTLVTVSS
VL: VTQPASVSGSPGQSITISCTGTSSDVGGYNYVSWYQQHPGKAPKLMIYDVSDRPSGVSNRFSGSKSGNTASLTISGLQAEDEADYYCSSYTSSSTPNWVFGGGTKLT

Each binder was assayed against full-length wild-type SARS-CoV-2 S (Severe acute respiratory syndrome …, UniProt P0DTC2) (assay: flow cytometry on cells).
B1: binds. B2: binds. B3: binds.
